Laboratory results reported in US20170320956A1 (KYMAB, published 2017).

Legend:
[1] = biological target: human LIGHT-214E, full length, expressed on the surface of CHO-S cells (human, UniProt O43557 1-240); test: flow cytometry, CHO-S cells expressing hLIGHT-214E
[2] = biological target: T1, recombinant human LIGHT-214K, FLAG-tagged extracellular domain (human); test: SPR ProteOn, mAb captured on anti-mouse IgG, LIGHT 256 nM, 25 C
T1 construct: the IgK leader peptide is marked only by underlining (not visible here), so its residues were not removed; Trimer
T1 chain: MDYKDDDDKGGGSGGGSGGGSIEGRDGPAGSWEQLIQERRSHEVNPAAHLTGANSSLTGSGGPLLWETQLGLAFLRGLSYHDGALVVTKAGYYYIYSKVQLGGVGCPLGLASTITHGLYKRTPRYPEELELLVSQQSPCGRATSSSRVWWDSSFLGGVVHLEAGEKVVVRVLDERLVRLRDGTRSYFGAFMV
Experimental: (§1) SPR analysis was carried out using the ProteOn™ XPR36 Array System (BioRad). Anti-mouse IgG (GE Healthcare BR-1008-38) was immobilised on a GLC biosensor surface using amine coupling, the surface was then blocked using 1M ethanolamine. […] Apparent affinities for the LIGHT-antibody interaction were determined using the 1:1 model inherent to the ProteOn XPR36 analysis software. The assay was run using HBS-EP (Teknova) as running buffer and carried out at 25° C.

[3] = biological target: T2, recombinant human LIGHT-214E, FLAG-tagged extracellular domain (human); test: HTRF competition, HVEM-Fc binding to Flag-hLIGHT-214E
T2 construct: Trimer; Biotinylated in some assays
T2 chain: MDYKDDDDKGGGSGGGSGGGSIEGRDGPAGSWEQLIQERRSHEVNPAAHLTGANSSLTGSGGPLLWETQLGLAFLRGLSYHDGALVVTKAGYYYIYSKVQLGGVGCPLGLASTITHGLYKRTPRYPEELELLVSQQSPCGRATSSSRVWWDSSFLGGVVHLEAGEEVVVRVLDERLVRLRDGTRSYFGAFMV
Experimental: (§2) The following methods were carried out with a titration of inhibitor in order to establish the clone potency as measured by IC50 values in the assay. 5 μl of Flag-tagged hLIGHT (in-house) diluted to 2.5 nM final concentration (10 nM working concentration) in HTRF buffer with 5 μl of a titration of antibody purified from hybridoma supernatant diluted in HTRF assay buffer from 300 nM final (1200 nM working concentration) was pre-incubated for 1 hour at room temperature. To wells used to define total binding, 5 μl of LIGHT (10 nM working, 2.5 nM final) and 5 μl of hybridoma maintaining media (HMM,)) were added. To wells used to define non specific binding (receptor only) 10 μl of HMM was added. Total and non specific binding wells were pre-incubated for 1 hr at RT in the same plate as wells containing titration of inhibitor.
(§3) LIGHT receptor was diluted in HTRF assay buffer and added to all wells, 5 μl/well of HVEM-Fc or LTβR-Fc (R&D systems) at 1.2 nM for HVEM (0.3 nM final) and 0.4 nM for LTβR (0.1 nM final).

[4] = biological target: T2, recombinant human LIGHT-214E, …; test: HTRF competition, LTβR-Fc binding to Flag-hLIGHT-214E
Experimental: as §2, §3

[5] = biological target: T3, recombinant cynomolgus monkey LIGHT, FLAG-tagged extracellular domain (cynomolgus (Macaca fascicularis), UniProt E9NVF7 59-240); test: SPR ProteOn, mAb captured on anti-mouse IgG, LIGHT 256 nM, 25 C, apparent affinity
T3 construct: extracellular domain; also called cynomolgus LIGHT; cyno LIGHT
Experimental: as §1

[6] = biological target: T2, recombinant human LIGHT-214E, …; test: as above
Experimental: as §1

[7] = biological target: T2, recombinant human LIGHT-214E, …; test: cell-based or functional assay
[8] = biological target: T4, mouse LIGHT (mouse, UniProt Q9QYH9 72-239, limits assumed); test: SPR ProteOn, mAb captured on anti-mouse IgG
T4 construct: also called murine LIGHT
T4 sequence (looked up): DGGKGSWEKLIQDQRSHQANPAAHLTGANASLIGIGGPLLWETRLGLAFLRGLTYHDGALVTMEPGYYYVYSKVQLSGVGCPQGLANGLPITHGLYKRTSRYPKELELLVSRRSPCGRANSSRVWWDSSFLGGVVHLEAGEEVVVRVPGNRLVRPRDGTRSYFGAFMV

B1: 117C06 (purified from hybridoma supernatant) (antibody, V domains shown)
VH: QVQLVQSGAEVKKPGASVKVSCKASGYTFVNFGISWVRQAPGQGLEWMGWISVYSGNTNYAQKLQGRVTLTTDTSTTTAYMELRSLRSDDTAVYYCARHNWNDYWGQGTLVTVSS
VL: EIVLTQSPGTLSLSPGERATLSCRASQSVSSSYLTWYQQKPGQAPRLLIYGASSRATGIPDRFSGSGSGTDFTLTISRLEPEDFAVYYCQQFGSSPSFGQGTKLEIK
notes: Murine constant / human variable chimeric IgG, kappa, Protein G purified from hybridoma supernatant
binding result [1]: binds | binding result [2]: no binding (tested: 256 nM) | IC50 [3]: 1.28 nM | IC50 [4]: 2.53 nM | Kd [5]: 2.82 nM | Kd [6]: 1.03 nM | HT29 IL-8 release, IC50 [7]: 1.42 nM | binding result [8]: no binding
